Data taken from patent US20090291088A1, “THERAPEUTIC COMBINATIONS OF ANTI-IGF-1R ANTIBODIES AND OTHER COMPOUNDS” (Biogen Idec MA Inc., priority 2008, published 2009).

Molecular target: T1, recombinant human IGF-1R-10His (Homo sapiens, UniProt P08069)
T1 construct: denoted hIGF-1R(1-902)-His10, was purchased from R&D systems (Cat. No. 305-GR-050); purchased R&D Systems 305-GR-050
Test: SPR, antibodies and Fabs on IGF-1R-His captured via PENTA-His antibody
Format: binding
Settings: Fab fragment; 25° C.
Protocol: Method: The binding activity of M13-C06, M14-C03, and […] to soluble IGF-1R was measured using surface plasmon resonance. Biotinylated PENTA-His Antibody (Qiagen, Inc.) was immobilized onto a Streptavidin coated Sensor Chip. Soluble/Dimeric IGF-1R-His ectodomain (R&D systems, Inc.) was captured on the surface via the PENTA-His antibody. Secondary injections of M13-C06, M14-C03, or M14-G11 Fabs (0.5 nM-100nM) were performed. The surfaces were regenerated with three short injections of acetate, pH 4.0.
M13-C06, M14-C03, and M14-G11 Fab antibodies were prepared by digestion with immobilized papain (Pierce Cat. No. 20341 (Pierce Biotechnology, Inc., Rockford, Ill.)). The papain resin was washed with 20 mM sodium phosphate pH 7.0; 10 mM EDTA; 20 mM Cysteine. Antibodies were mixed with the papain resin in 500 mM EDTA, 100 mM Cysteine pH 7.0 and digested for three hours in a 37° C. water bath followed by mixing on an inverting shaker overnight at room temperature. Completion of each digestion was determined by analytical size exclusion chromatography (SEC). The resin was removed from the digested protein with a sintered glass funnel filter and washed with 20 mM acetate pH 5.0. The flowthrough was collected and diluted 10-fold with 20 mM acetate pH 5.0. Fab fragments were purified by S-SEPHAROSE™ cation exchange chromatography using a linear salt gradient. […]

ka: 190000 M⁻¹ s⁻¹
kd: 0.00094 s⁻¹
B1: M14-C03_Fab (antibody, V domains shown)
VH: EVQLLESGGGLVQPGGSLRLSCAASGFTFSKYMMSWVRQAPGKGLEWVSYISPSGGLTWYADSVKGRFTISRDNSKNTLYLQMNSLRAEDTAVYYCARDGARGYGMDVWGQGTTVTVSS
VL: DIQMTQSPATLSLSPGERATLSCRASQSVSSYLAWYQQKPGQAPRLLIYDASNRATGIPARFSGSGSGTDFTLTISSLEPEDFAVYYCQQRSNWPPEVTFGPGTKVDIK
